Reference: US20230002480A1

Tests used:
Test in all cases: cell-based or functional assay
[1] = target: HIV-1 Env of pseudovirus Ce703010054_2A2 (HIV-1)
[2] = target: HIV-1 Env of pseudovirus 1054_07_TC4_1499 (HIV-1)
[3] = target: HIV-1 Env of pseudovirus PVO.4 (HIV-1)
[4] = target: HIV-1 Env of pseudovirus 6535.3 (HIV-1)
[5] = target: HIV-1 Env of pseudovirus Du156.12 (HIV-1)
[6] = target: HIV-1 Env of pseudovirus X2088_c9 (HIV-1)
[7] = target: HIV-1 Env of pseudovirus CAP45.2.00.G3 (HIV-1)
[8] = target: HIV-1 Env of pseudovirus CNE20 (HIV-1)
[9] = target: HIV-1 Env of pseudovirus AC10.0.29 (HIV-1)
[10] = target: HIV-1 Env of pseudovirus C4118.c09 (HIV-1)
[11] = target: HIV-1 Env of pseudovirus 6240_08_TA5_4622 (HIV-1)
[12] = target: HIV-1 Env of pseudovirus 263-8 (HIV-1)
[13] = target: HIV-1 Env of pseudovirus 928-28 (HIV-1)
[14] = target: HIV-1 Env of pseudovirus HIV-0013095-2.11 (HIV-1)
[15] = target: HIV-1 Env of pseudovirus 246F C1G (HIV-1)
[16] = target: HIV-1 Env of pseudovirus X1254_c3 (HIV-1)
[17] = target: HIV-1 Env of pseudovirus 191955_A11 (HIV-1)
[18] = target: HIV-1 Env of pseudovirus Ce704809221_1B3 (HIV-1)
[19] = target: HIV-1 Env of pseudovirus Q461.e2 (HIV-1)
[20] = target: HIV-1 Env of pseudovirus 235-47 (HIV-1)
[21] = target: HIV-1 Env of pseudovirus P0402_c2_11 (HIV-1)
[22] = target: HIV-1 Env of pseudovirus BJOX009000.02.4 (HIV-1)
[23] = target: HIV-1 Env of pseudovirus T250-4 (HIV-1)
[24] = target: HIV-1 Env of pseudovirus ZM135M.PL10a (HIV-1)
[25] = target: HIV-1 Env of pseudovirus CNE53 (HIV-1)
[26] = target: HIV-1 Env of pseudovirus WEAU_d15_410_787 (HIV-1)
[27] = target: HIV-1 Env of pseudovirus Ce1172_H1 (HIV-1)
[28] = target: HIV-1 Env of pseudovirus CNE52 (HIV-1)
[29] = target: HIV-1 Env of pseudovirus RHPA4259.7 (HIV-1)
[30] = target: HIV-1 Env of pseudovirus CAAN5342.A2 (HIV-1)
[31] = target: HIV-1 Env of pseudovirus T278-50 (HIV-1)
[32] = target: HIV-1 Env of pseudovirus ZM247v1(Rev-) (HIV-1)
[33] = target: HIV-1 Env of pseudovirus ZM233M.PB6 (HIV-1)
[34] = target: HIV-1 Env of pseudovirus Q259.d2.17 (HIV-1)

N49P7 (antibody)
neutralization IC50 [1]: 0.132 mg/L | neutralization IC80 [1]: 0.466 mg/L | neutralization MPI [1]: 100 | neutralization IC50 [2]: 0.494 mg/L | neutralization IC80 [2]: 2.31 mg/L | neutralization MPI [2]: 100 | neutralization IC50 [3]: 0.107 mg/L | neutralization IC80 [3]: 0.365 mg/L | neutralization MPI [3]: 100 | neutralization IC50 [4]: 0.186 mg/L | neutralization IC80 [4]: 0.598 mg/L | neutralization MPI [4]: 100 | neutralization IC50 [5]: 0.032 mg/L | neutralization IC80 [5]: 0.086 mg/L | neutralization MPI [5]: 100 | neutralization IC50 [6]: 0.116 mg/L | neutralization IC80 [6]: 0.338 mg/L | neutralization MPI [6]: 100 | neutralization IC50 [7]: 0.06 mg/L | neutralization IC80 [7]: 0.29 mg/L | neutralization MPI [7]: 100 | neutralization IC50 [8]: 0.028 mg/L | neutralization IC80 [8]: 0.1 mg/L | neutralization MPI [8]: 100 | neutralization IC50 [9]: 5.03 mg/L | neutralization IC80 [9]: 36.7 mg/L | neutralization MPI [9]: 89 | neutralization IC50 [10]: 0.043 mg/L | neutralization IC80 [10]: 0.147 mg/L | neutralization MPI [10]: 100 | neutralization IC50 [11]: 0.457 mg/L | neutralization IC80 [11]: 1.73 mg/L | neutralization MPI [11]: 100 | neutralization IC50 [12]: 0.056 mg/L | neutralization IC80 [12]: 0.201 mg/L | neutralization MPI [12]: 100 | neutralization IC50 [13]: 0.167 mg/L | neutralization IC80 [13]: 0.579 mg/L | neutralization MPI [13]: 100 | neutralization IC50 [14]: 0.073 mg/L | neutralization IC80 [14]: 0.253 mg/L | neutralization MPI [14]: 100 | neutralization IC50 [15]: 0.094 mg/L | neutralization IC80 [15]: 0.255 mg/L | neutralization MPI [15]: 100 | neutralization IC50 [16]: 2.97 mg/L | neutralization IC80 [16]: 13.6 mg/L | neutralization MPI [16]: 100 | neutralization IC50 [17]: 1.81 mg/L | neutralization IC80 [17]: 8.87 mg/L | neutralization MPI [17]: 99 | neutralization IC50 [18]: 0.141 mg/L | neutralization IC80 [18]: 0.932 mg/L | neutralization MPI [18]: 100 | neutralization IC50 [19]: 0.261 mg/L | neutralization IC80 [19]: 0.922 mg/L | neutralization MPI [19]: 100 | neutralization IC50 [20]: 0.045 mg/L | neutralization IC80 [20]: 0.3 mg/L | neutralization MPI [20]: 99 | neutralization IC50 [21]: 0.014 mg/L | neutralization IC80 [21]: 0.061 mg/L | neutralization MPI [21]: 100 | neutralization IC50 [22]: 0.113 mg/L | neutralization IC80 [22]: 0.506 mg/L | neutralization MPI [22]: 100 | neutralization IC50 [23]: 2.07 mg/L | neutralization IC80 [23]: 21.4 mg/L | neutralization MPI [23]: 91 | neutralization IC50 [24]: 0.2 mg/L | neutralization IC80 [24]: 0.96 mg/L | neutralization MPI [24]: 100 | neutralization IC50 [25]: 0.035 mg/L | neutralization IC80 [25]: 0.124 mg/L | neutralization MPI [25]: 100 | neutralization IC50 [26]: 0.045 mg/L | neutralization IC80 [26]: 0.117 mg/L | neutralization MPI [26]: 100 | neutralization IC50 [27]: 8.5 mg/L | neutralization IC80 [27]: 37.5 mg/L | neutralization MPI [27]: 92 | neutralization IC50 [28]: 0.008 mg/L | neutralization IC80 [28]: 0.023 mg/L | neutralization MPI [28]: 100 | neutralization IC50 [29]: 0.083 mg/L | neutralization IC80 [29]: 0.246 mg/L | neutralization MPI [29]: 100 | neutralization IC50 [30]: 0.409 mg/L | neutralization IC80 [30]: 1.21 mg/L | neutralization MPI [30]: 100 | neutralization IC50 [31]: 22.3 mg/L | neutralization IC80 [31]: > 50 mg/L | neutralization MPI [31]: 75 | neutralization IC50 [32]: 0.062 mg/L | neutralization IC80 [32]: 0.214 mg/L | neutralization MPI [32]: 100 | neutralization IC50 [33]: 0.226 mg/L | neutralization IC80 [33]: 0.774 mg/L | neutralization MPI [33]: 100 | neutralization IC50 [34]: 0.332 mg/L | neutralization IC80 [34]: 2.47 mg/L | neutralization MPI [34]: 98
